Assay: soluble fraction after stress (log2 fold change); higher = more stays soluble; pooled small domains, quantitative proteomics
Conditions: stress: 50 degC
Summary of the method: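 Pooled custom libraries of small protein domains were each held under stress at 50°C. The read-out, high-throughput quantitative proteomics, tracked how much of each protein stayed soluble. This is reported as a base-two log fold change used to indicate aggregation propensity. Higher values mean more protein remains in solution.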

Sequence	soluble fraction (log2)
HMEALGLSPRQVDVLRLLVEGRSNKMIMRELELSESTVKTHLQAIFRRLGVSSRTQAVVAAARLGL	-1.25
HMEALSAREIEILQALETGASNRELAKMLFISEATVKTHLVHIYQKLGVGTRTAAITEARERRV	-1.64
HMEANAYFDAYPDVAAEWARLSGSDEGKATLSAIGVTTPQQFAQYHYTTFGSKENRNAPVGYTP	0.0756
HMEANPLTDREKEVLELVADGKNTKEIAQELSIKSGTVRNYISMILEKLEVKNRIEAITRSKEKGWF	0.144
HMEAPMPIFWRPQFRIGHDDIDADHRYLILLINTVELVLRFPDDPRNVELALTELRRYAEDHFEREER	-0.161
HMEAQAHYDAIYKAHPNADSIAQSAEFKAWVDAQPSVVRNAYWQLFDPKEGGTAEQIVEVFDAFVKSS	-0.151
HMEDDIRSSIRTLDQFISKNQITLSKDVKNYILQLLSNDRMVTINELEKIKIYYDSNENIDLDTVKILLN	-0.754
HMEDEEILNEIRHTEQYVYYFGNYIMEHHVSRGLSKEKVIASLARELQIEIADIREDFDGMIEQIKTNILN	-0.163
HMEDESSIERYLGSGAIKGIGPSLAARIVKKFGKDTFRIIEQEPERLAEIKGISERKAMEISTLMEEK	0.0193
HMEDGRLPPPGTVLRREYKGRAVFVRVLPKGFEFEGEVYRSLSAIAAKVTGSHWNGFRFFGLHE	-1.54
HMEDHMVVFGKGGRITRLPDKATVLEYLDAANFFASRSSVVKVNGKLASLDQTLRDGDSIEIVD	-0.183
HMEDINAVLAENLRRLRESRRLSLDAVARLTGVSKSMLGQIERGEVNPTVSTMWKIAGGLKVNFTALFRRE	-1.47
HMEDIQPSVIFQNNMIDGFKKFGVSFLQNRRNVNVNTLNGLASAGTYPKWQQLLVNKISYIDMLLSTGG	0.0785
HMEDKIIVTVPGEYHLERIDRFLAANLEEDLSRSLIQRYIRENLITVNGEAVRANYKVKTDDEILITFPQ	-0.603
HMEDLAERLDNLSTMYAKMDPVRAAQVLLESKNKSENIEVLKRLKPKSLGLILENMPPREAYDYVSELQ	0.0712
HMEDLGYVKVASQTAAIRKSAAVQAGQIGTVHEGETYRYLGEEEGWYLVEYNGQKAYISWDDGEL	-0.119
HMEDMMKALLDVVRAQHTATEGSEERPFDINDIIDMALNITGRPEEPEEQQELSDTIQKLAESLAPDIFP	-0.356
HMEDNKLKNEIKNELVSHLEKPYSVEDLADALKYHGSAAFKLIVQELAILERERAVVVTHDGNFKINSS	-0.619
HMEDPAVYYKILQIPPDASLSEIHRAFEKITSAWDPERYPHISSWKETSAKKLQEIRNAYEKLLILRETG	-0.0409
HMEDPFLWVEKLGSSDWIEREESAEKLLEAGEASVEALRTALTHPDLEVRERVRELLSVISPL	-0.104
HMEDPRVTEIKNLQQDLAKKFKPTQGPASASDAVERVTAITTVMTKVAALPEDLRSEAMQPGKKM	-0.322
HMEDQFWQNRAEMALASARRAGRIVTYAEMADAADIPAPQRIHKLTLWLEATMRQDHASGQPLRAALV	0.0463
HMEDQITNQQFTMTKQSILDLLVKKSYPPYELANELHLKKEEVLPIIRFLIAENEIHFKDGMLHLPH	-0.167
HMEDQLDSLKDIIYDYLENNELYYNDLQEFKKIIIENMEFIHPNLNHKLIDNNFFKLINFKLEYNF	-0.0455
HMEDSSSILNRMRKLIALLNRASEAYYKENKEIISNFEYDRLYDELLGLESRSNTVLSGSPTYKV	-1.63

Sequence	soluble fraction (log2)
HMEDTFEYPVSVNGKLRFKIELPVSMEKDEIRNIVLNDERAKKWLATGTLTNLIVVPNRIINIVIK	-0.124
HMEDTSTLSIKHKIKELINQESPQAILSDDKLVELLAAQGIKIARRTIAKYRETMNIPTSAERKRQKRPP	0.479
HMEDVTLSLVVGEDLDGERLDVFLTWKLDRTRSQVQALIRDGKVRLEQGQRARPSMVVRSGMGISVSLEPR	-1.49
HMEDYYKILGVSKDASIDDIKKSYRKLSLQNHPDRNKSPQASENFAKINSAYEVLSDQRKKRQYDMQQSM	0.0897
HMEEAQWEFKWENTDSAEIHGPHSSSEMLKWQENSFFAKGVYVRKVGGDTTDFTDGKRIDFDLY	-0.822
HMEEDPILVAQRFLNIFRQLHIFDQQRREEFNSMILALPPEIRGTFGVLPGGSVLQEYVDELEISKGMA	-0.512
HMEEDPVISQAQRQALFKLAHDHFGQEEGNKVILRLIGEHGLRSTTNMTASVYKTVTDALIQVIESMVEG	-0.0318
HMEEEDELALFLREERKNYDLTLTDVHEKTGIPQKVLKEFQWGDAQLTDRQRYTLTQYVEEAREYFQENA	0.0369
HMEEEVKVPKIKGLTEAEAKAKLKSEGLESGTARSAYSDTVEEGHIISQSIQEGTKVPKGTAVSYEVSKGK	0.17
HMEEGKVKRMAMDMVDAFYDKVSAMVDDNNDLGRSVVDAWDDEEENPPEYMLDDETRAILVNAGKIEPE	0.0748
HMEEHSLRKQEMLRIIEALEQLTPKEKTVVVLYYFKGVLFKDIAMLLDVTEGRISQLHTAAMGRLKKLMD	-0.0471
HMEEIDLTPAEEILNKLPDNSRGYLIPTLNKIQNAYRFLPDPAMELLMEFFNVSRAEIFGVISFYPQLMI	-0.0574
HMEEIPYGVISAKAGAAAYDYIKKSIELGIEKKIDGVATAPIQKEAIHMAGISYIGHTEMYQGIT	0.0739
HMEEKEIGQTLSVKIRENVLSKLDMTRDLEDEEVKHIIEHEIWLAAKKHYISLEERNSIKRGIFNSL	-0.573
HMEELELTIDGEMVGRIDKQLGHHFDQFSRSQIQHWIEDGHVLVNGKQVKPKYKLLVGDHVQIIPEEPQK	0.25
HMEELIIQEELANKRLDIAISLLFPELTRAHAQKLIKEGSVLVDGKPRKASYPLTAGKRLSVTLPEPE	0.05
HMEELPVLHLKHVVVEGESLWKLAEQYLNDGTRWQEIYMLNRENISNPDLIREGQELNIQFLQGE	-0.574
HMEENIKKDIEVPNIEGLTIDEAKKRLKEVNLNISIEDMEEKEGTEIITQQLPKAGIKVKEGVAIIAY	0.0824
HMEEPEFEPYVVRLTAIALNVRTGPGTQYPVAMVIRGGGAFTIVAEENGFGLLKSGAGWIMLQHTERV	-0.434
HMEEQELQLIQFPIASGSAWAGKAVRELILPPETLLVMLIRGTETMIPKGDTMVQEGDTAVLSASAYRDD	-0.434
HMEEQKYEYHLGDVVYLGVDKYEILGITNNIVTLYDPEFPLLNKQLDFDEFEKRVKDNYANEHLKVT	-0.429
HMEERDMKGSISDLVERYADQLTDEQLEEIVLGIKNGLLEEDVKSYFFLPAEDMRRIRTALEQVR	0.00866
HMEESEMIAFATVAHRIVGKPVEAVMRSYRNRDNIPADIAAIVSSKFTFSVTMAEASYRNPKKSYQVNSII	-0.00943
HMEETLLLRESVRSALAMLAPTLRITLEMYVYRQLSPTEIALRSGVSISMVRRRLGYGLYKLRTQLIDA	-0.138
HMEFEIGQEDSKKSVKQFLYNTLRLSHGQVTALKRQERGILLNGERVFVTALLQEGDRLSLLLE	-0.342

Sequence	soluble fraction (log2)
HMEFFIIDHNGQQAGPFSFDQLVQKGISPETLVWKQGMADWNPAWKVEELKAVLEAVEANQSNQKAQ	0.462
HMEFGEVLAQLRQKRHISQAELGRAIFVSGGTISNYEKGVHFPDVEKLLLLADYFNVTTDYLLGRT	-2.04
HMEFNQAVQDVNELSMQYAKSDVLWPEFEPKVLAFAKNELSQMPPNQWKFALQTFYNGLKQAA	-0.352
HMEFPLSPHQYSVLRLMAQGLSNKQIAERLFLSENTVKGYVQEVLRRLGARNRLEAVMIANRRGWL	-0.112
HMEFPYISGVDVGTISNKEFARFETTKASDIVIALDKSGIPFSARFGDSEIVLTYDGSYKEEVEEIIAKV	0.0138
HMEFSYMDQGLERYRAFLETHGHGNVPESYHELKLVNFVAHIRKLYRMNLLSEERRRALDEAGFVF	-2.17
HMEFVEERRNRMLDYIGENKRADVPELARHFDVTEVTIRRDLLILEQDGKLIRTHGGAMINR	-0.433
HMEGDKEIPNVIGKSINDAKKILEQAGLKLGEVKKVNDSSVAKNVVLSTNPNAGTKVSAGDAVSITVAEG	0.0251
HMEGGLIMDRIEKGLQSGVMPDLRGLNLKDALYLLESYVQVQVIGSGGVIKQSIKTGDKFIMGSVIKLEL	-0.0813
HMEGLATRLRFLRQARGLSYHALARLSGVTHTALHQIEAGKNIPGLDTAEKIAMALDVDPRWFAYGRGDPS	-1.31
HMEGPALKVWKARYLRAAILEQLLSDRWDDRGGQPIRVVVNEPTNSLLIRIPRHLWPEAEKLLQELDQR	-1.02
HMEGTEILVNIRKGMTKEEIASLLVSKGLVEDKNTFLVQTALYTSDRYPIQPGSYTLNTAQTPEEMLAVMT	0.0128
HMEGVNLTVQEAKQMAAIIAPLLKQGQSPYQIVTNHPELGISEKTLYNYIENDVFHEIAGITVMDL	-0.365
HMEHIVNELDRKVIDYLQSHYDAKLNDIAQGIGVSKATATKSIRKLVQTGIVHVVGSSGTGTSYNLTE	-0.152
HMEHVVFEVTESGELENNTAVKHVLNSFNNKSLNLAIDDFGTGYSNLRYIRDMMFGIIKIDRLFIKDINES	-0.018
HMEIDFDKINSIFNDANKLYEEGDYFEANNLYKNIVSSNIISKDLYYNLGLSYAKIGSNGYAILWYERALN	-0.189
HMEIEEIDYGTFLQMVEDGVVEKIELTDTQIFLTSTVDNDDKVYTTGVMPDQDLTNRLIEAGVVNFGKVV	-0.21
HMEIFSIEPDSYLGSGEEIASYYREGVTVIVNMAKLSDAESLRMVDFMSGLKLALLGNIKRITKHVYLLTP	-0.0901
HMEIITIVSDINGKRIDAWLSEKLENYSRSFIQKLIQNENVKVNNNIVKANYKLKNGDAVAVSIPEPV	≥ 0.62
HMEILNYVVSDGQSGIRIDRYLSDSNEDLSRSYIQKLLKEQKVTVQGTFVKANYKVQAGDVITVEVPDMA	-0.946
HMEILPAYRDIKKEALLGNINAEFKYVNLLLEHNYIEQAFNIIEDMKTRVDDNPEFEELKSRVADAYLMY	-1.38
HMEILTLEELKRLMAKAKLKQNQISGHAGVSKQQISMILAGKRNITKDVSDNLKANLAEYFP	-0.462
HMEILVSTRRHEIASLLSRKKRVSFFELFPEKTKEYVVATFLAILEMAKAREVNITQEDTFDEIIVEEA	-0.43
HMEIPTPAELREKRIRMGLKQADVARMAGISQSMVARIESGSVDPRVSTLAKIVEVLQAAER	-0.175
HMEISLEAKMAEVREQVRGLAGINFRTLLEMQASRSNIIVTFLAILELMKIGAIQIRQEEIFGEIIIDSRD	-0.222
